Laboratory results as given in patent US20160304615A1 (Regeneron, published 2016).

Legend:
[1] = biological target: T1, C-terminal biotin-labeled EGFR311-326 peptide (human, biotin at the C-terminus); assay: BLI (Octet RED), biotinylated peptide on streptavidin tips
T1 peptide: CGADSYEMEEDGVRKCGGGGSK
Description: After peptide capture, the coated tips were placed in 1 μM solutions of antibody and the binding responses were recorded (see FIG. 2). Controls I-III are the same as those described above.

EGFRvIII-mFc = biological target: T2, EGFRvIII-mFc (human); assay: SPR 37C, receptor-capture
T2 construct: Soluble dimeric protein
Description: Measurements were conducted on a T100 BIACORE™ instrument. […] In the receptor-capture format, either EGFRvIII-mFc or EGFR-mFc, was captured on the BIACORE™ chip and the respective antibodies flowed over. Kinetic association (kₐ) and dissociation (kd) rate constants were determined by processing and fitting the data to a 1:1 binding model using Scrubber 2.0 curve fitting software. Binding dissociation equilibrium constants (KD) and dissociative half-lives (t_{1/2}) were calculated from the kinetic rate constants as: KD (M)=kd/kₐ; and t₁₁₂ (min)=ln2/(60*kd).

B1: H1H1863N2(Fuc-) (antibody, human IgG1, V domains shown)
VH: EVQLVESGGGLVQPGGSLRLSCAASGFPFSSYDMHWVRQATGKGLEWVSAIGTAGATYYPGSVKGRFTISRENAKNSLYLQMNSLRAGDTAVYYCARGDYVWGTYRPLFDYWGQGTLVTVSS
VL: DIQLTQSPSFLSASVGDRVTITCWASQGINNYLAWYQQKPGKAPKLLIYAASTLQTGVPSRFSGSGSGTEFTLTISSLQPEDFATYYCQQLNSYPLTFGGGTKVEIK
notes: Human IgG1; also called H1H1863N2 with reduced fucosylation; H1H1862N2 (Fuc-)
[1]
  binding result: no binding (tested: 1 µM)
EGFRvIII-mFc
  T½: 54 min
